Reference: US20160237095A1 (KADMON, published 2016)

Experiments:
[1] = biological target: T1, murine VEGFR2 (murine, UniProt P35918 20-762, limits assumed); experiment: Biacore
T1 construct: Antigen in the ELISA and Biacore assays; also called mVEGFR2; mouse VEGFR2

[2] = biological target: T2, rat VEGFR2 (rat, UniProt O08775 20-760, limits assumed); experiment: Biacore
T2 construct: Antigen in the Biacore assay

[3] = biological target: T3, human VEGFR2 (human, UniProt P35968 20-764, limits assumed); experiment: Biacore
T3 construct: Antigen in the ELISA and Biacore assays; also called hVEGFR2; KDR
T3 sequence (P35968 20-764 limits assumed): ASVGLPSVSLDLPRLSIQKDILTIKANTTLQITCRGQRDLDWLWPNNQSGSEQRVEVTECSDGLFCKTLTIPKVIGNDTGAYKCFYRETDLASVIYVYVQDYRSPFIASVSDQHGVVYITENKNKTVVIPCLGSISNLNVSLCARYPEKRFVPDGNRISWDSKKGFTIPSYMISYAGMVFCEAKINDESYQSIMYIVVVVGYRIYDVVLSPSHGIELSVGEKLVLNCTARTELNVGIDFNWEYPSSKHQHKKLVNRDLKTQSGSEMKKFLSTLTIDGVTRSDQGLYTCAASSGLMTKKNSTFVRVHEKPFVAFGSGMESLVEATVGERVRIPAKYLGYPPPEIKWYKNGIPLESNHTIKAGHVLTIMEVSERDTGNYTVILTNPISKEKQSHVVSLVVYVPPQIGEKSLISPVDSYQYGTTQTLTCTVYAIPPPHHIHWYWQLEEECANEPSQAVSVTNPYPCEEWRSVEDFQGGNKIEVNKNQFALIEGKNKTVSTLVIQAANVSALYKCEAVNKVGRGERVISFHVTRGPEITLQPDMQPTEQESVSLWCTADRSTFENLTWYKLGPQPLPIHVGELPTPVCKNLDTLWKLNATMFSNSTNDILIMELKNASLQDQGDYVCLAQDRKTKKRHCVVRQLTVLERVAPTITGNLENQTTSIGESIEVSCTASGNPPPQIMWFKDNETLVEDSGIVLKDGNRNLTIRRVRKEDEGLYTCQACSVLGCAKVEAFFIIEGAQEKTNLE

[4] = biological target: T4, human VEGFR2 expressed on HUVEC and on KDR-PAE cells (human, UniProt P35968 20-1356); experiment: cell binding (MFI), KDR-PAE cells
T4 construct: whole, on cells; also called hVEGFR2; hVEGR2
T4 sequence (P35968 20-1356): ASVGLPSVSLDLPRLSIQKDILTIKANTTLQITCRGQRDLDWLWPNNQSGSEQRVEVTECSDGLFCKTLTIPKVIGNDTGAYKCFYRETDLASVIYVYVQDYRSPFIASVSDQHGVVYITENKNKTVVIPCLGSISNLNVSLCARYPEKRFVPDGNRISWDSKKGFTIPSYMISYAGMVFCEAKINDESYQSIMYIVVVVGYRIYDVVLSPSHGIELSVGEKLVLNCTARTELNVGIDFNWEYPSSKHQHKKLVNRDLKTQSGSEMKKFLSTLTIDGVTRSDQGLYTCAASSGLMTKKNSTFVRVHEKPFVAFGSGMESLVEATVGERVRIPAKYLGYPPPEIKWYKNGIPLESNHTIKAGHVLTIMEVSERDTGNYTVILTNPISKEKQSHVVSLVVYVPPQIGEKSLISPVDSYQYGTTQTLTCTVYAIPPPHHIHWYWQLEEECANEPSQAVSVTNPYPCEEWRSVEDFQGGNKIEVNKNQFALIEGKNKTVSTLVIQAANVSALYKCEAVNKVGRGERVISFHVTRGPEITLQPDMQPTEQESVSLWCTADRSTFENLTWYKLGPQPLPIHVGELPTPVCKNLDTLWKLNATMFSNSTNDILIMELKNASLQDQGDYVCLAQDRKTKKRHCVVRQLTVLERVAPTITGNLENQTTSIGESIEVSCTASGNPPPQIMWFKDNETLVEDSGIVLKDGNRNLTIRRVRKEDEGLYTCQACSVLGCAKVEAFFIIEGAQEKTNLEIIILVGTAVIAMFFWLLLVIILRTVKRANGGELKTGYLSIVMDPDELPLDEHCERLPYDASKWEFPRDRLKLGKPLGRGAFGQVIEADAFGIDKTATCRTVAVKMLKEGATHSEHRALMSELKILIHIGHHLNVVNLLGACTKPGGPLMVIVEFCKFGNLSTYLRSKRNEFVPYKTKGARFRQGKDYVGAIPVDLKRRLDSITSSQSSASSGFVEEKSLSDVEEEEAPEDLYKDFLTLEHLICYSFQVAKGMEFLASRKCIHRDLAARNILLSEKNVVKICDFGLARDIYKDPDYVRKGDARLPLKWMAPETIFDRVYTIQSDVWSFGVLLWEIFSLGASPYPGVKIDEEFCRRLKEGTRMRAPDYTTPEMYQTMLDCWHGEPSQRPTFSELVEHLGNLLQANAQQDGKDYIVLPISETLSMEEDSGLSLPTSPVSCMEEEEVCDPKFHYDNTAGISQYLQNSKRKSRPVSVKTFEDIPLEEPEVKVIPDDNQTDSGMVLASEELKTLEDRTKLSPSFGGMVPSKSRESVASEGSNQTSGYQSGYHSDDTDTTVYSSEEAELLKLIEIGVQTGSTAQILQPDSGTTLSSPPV

[5] = biological target: T3, human VEGFR2; experiment: ELISA, binding to hVEGFR2 (left panel)
[6] = biological target: T1, murine VEGFR2; experiment: ELISA, binding to mVEGFR2 (right panel)
[7] = biological target: T3, human VEGFR2; experiment: blocking ELISA, hVEGF binding to hVEGFR2 (left panel) [continued) B]
[8] = biological target: T1, murine VEGFR2; experiment: blocking ELISA, mVEGF binding to mVEGFR2 (right panel) [continued) B]
[9] = biological target: T1, murine VEGFR2; experiment: ELISA, binding to mVEGFR2 (right panel); detected with a different secondary antibody

T1 sequence (P35918 20-762 limits assumed): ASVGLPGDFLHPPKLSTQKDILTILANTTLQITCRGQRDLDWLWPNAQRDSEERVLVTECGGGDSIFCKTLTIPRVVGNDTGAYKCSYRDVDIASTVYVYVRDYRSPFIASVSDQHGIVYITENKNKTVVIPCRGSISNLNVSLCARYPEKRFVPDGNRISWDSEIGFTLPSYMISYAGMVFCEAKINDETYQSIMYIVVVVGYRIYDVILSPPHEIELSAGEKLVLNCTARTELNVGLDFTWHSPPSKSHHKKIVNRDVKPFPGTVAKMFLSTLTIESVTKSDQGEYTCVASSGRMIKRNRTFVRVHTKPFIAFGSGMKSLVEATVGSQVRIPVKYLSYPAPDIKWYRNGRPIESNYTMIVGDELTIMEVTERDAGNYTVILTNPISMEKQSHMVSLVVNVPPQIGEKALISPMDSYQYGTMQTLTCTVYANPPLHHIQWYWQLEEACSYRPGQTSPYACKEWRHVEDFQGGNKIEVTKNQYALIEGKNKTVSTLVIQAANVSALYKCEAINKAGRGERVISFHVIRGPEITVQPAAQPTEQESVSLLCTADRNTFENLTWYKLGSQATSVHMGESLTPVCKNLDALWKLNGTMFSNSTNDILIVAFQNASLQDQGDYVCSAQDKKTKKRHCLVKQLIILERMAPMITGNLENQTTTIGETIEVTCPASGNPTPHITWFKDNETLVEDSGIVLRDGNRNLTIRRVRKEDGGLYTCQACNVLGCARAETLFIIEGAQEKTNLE
T2 sequence (O08775 20-760 limits assumed): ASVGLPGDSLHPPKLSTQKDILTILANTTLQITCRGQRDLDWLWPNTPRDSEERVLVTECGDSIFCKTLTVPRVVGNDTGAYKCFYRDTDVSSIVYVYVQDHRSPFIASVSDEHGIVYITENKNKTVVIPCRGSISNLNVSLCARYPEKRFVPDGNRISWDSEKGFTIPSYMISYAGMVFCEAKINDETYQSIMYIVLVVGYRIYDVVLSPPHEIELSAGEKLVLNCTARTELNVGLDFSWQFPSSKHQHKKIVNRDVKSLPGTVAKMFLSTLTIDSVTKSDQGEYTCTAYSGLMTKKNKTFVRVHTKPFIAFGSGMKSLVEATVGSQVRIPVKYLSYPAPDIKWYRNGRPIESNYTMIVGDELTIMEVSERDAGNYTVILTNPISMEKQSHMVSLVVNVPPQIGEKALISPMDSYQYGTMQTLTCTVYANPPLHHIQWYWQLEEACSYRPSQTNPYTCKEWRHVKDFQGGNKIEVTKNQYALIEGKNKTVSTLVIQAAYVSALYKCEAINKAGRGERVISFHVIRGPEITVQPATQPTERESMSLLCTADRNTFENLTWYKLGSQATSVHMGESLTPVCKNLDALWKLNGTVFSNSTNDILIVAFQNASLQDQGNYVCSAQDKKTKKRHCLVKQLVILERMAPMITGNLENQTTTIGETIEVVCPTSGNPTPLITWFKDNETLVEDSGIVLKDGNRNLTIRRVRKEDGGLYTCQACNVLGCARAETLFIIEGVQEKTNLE

Binder | Kd [1] [nM] | Kd [2] [nM] | Kd [3] [nM] | EC50 (read off the curve) [4] [nM] | EC50 (read off the curve) [5] [nM] | EC50 (read off the curve) [6] [nM] | IC50 (read off the curve) [7] [nM] | IC50 (read off the curve) [8] [nM] | EC50 (read off the curve) [9] [nM]
Mab 149 (antibody, V domains shown) VH: EVQLLESGGGLVQPGGSLRLSCAASGFTFSWYVMGWVRQAPGKGLEWVSSIYPSGGATNYADSVKGRFTISRDNSKNTLYLQMNSLRAEDTAVYYCARGNYLDYWGQGTLVTVSS VL: DIQMTQSPGTLSLSPGEGATLSCRASQSVSSNYFGWYQQKPGQAPRLLIYGASSRATGIPDRFSGSGSGTDFTLTISRLEPEDSAVYYCQQFDSSPLSFGGGTKVEIKR | 79.2 | 43.1 | 7.65 |  |  |  |  |  | 
Mab 138 (antibody, V domains shown) VH: EVQLLESGGGLVQPGGSLRLSCAASGFTFSWYVMGWVRQAPGKGLEWVSSIYPSGGATNYADSVKGRFTISRDNSKNTLYLQMNSLRAEDTAVYYCARGNYFDYWGQGTLVTVSS VL: DIQMTQSPGTLSLSPGDRATLSCRASQSVSSNYLAWYQQKPGQAPRVLIYGASTRATGIPDRFTGSGSGTDFTLTISRLEPEDSAVYYCQQFDSSPLSFGGGTKVEIKR |  | 31.2 |  |  |  |  |  |  | 
Mab 147 (antibody, V domains shown) VH: EVQLLESGGGLVQPGGSLRLSCAASGFTFSWYVMGWVRQAPGKGLEWVSSIYPQGGATSYADSVKGRFTISRDNSKNTLYLQMNSLRAEDTAVYYCARGNYFDYWGQGTLVTVSS VL: DIQMTQSPGTLSLSPGEGATLSCRASQSVSSNYFGWYQQKPGQAPRLLIYGASSRATGIPDRFSGSGSGTDFTLTISRLEPEDSAVYYCQQFDSLPLTFGGGTKVEIKR | 29.4 | 13.9 | 2.51 | ~0.3 | ~0.1 | ~0.1 | ~0.4 | ~0.5 | 
DC 101 (a murine monoclonal Ab that binds to murine VEGFR2) (antibody, V domains shown) VH: EVQLVETGGGLVQPGNSLKLSCATSGFIFSTTWMNWIRQTPGKRLEWLAQIEDKSNNYFISYSESVKGRFTISRDDSKSSVYLQMNNLKEEDTAIYYCSWKYRSNYYFDYWGQGVMVTVSS VL: DIVLTQSPALAVSLEQRATISCKTSQNVDYYGISYLHWYQQKPGQQPKLLIYEGSNLASGIPARFSGSGSGTDFTLTIDPVEADDIVTYYCQQSKDYPYTFGAGTKLELK |  |  |  |  |  |  |  | ~0.6 | ~0.3
